Columns and labels:
Candida albicans = test: Immunofluorescence of AcM anti-chitooligomer against intact cells; type: binding; conditions: AcM 25 μg/mL, 1 h at 37° C.; anti-IgM Alexa 568; calcofluor
Procedure: Fungal cells (10^6 cells)) were fastened (cacodylate paraformolaldehyde buffer 4%; 30 min) and blocked later (PBS/BSA 1%; 1 hour). Then, they were incubated with AcM anti-chitooligomer(25 μg/mL; 1 h at 37° C.) After washing with PBS, cells were incubated with mouse anti-IgM antibody conjugated at Alexa 568 (SIGMA; 1:1000). After PBS washing, cells were incubated with 25 μM of white calcofluor (Invitrogen) and washed again. Cellular suspensions were assembled in glass blades and assessed under microscope Olympus AX70, coupled to camera system (QImaging Retiga 1300) and assessed in QCapture suite V2.46 software.
From reliable and ELISA and Dot Blot trials, biological activity validation tests. Thus, AcMs were used through immunofluorescence (IF), using the pathogen Candida albicans as template. AcMs were efficient at fungal cellular wall labeling, showing the same profile whenever standard marker is used (lectin), data not provided.

C. neoformans (H99) = test: Indirect ELISA against intact cells using poly-L-Lysine (PL); type: binding, Cryptococcus neoformans; conditions: 10^4 and 10^5 cells/ml
Procedure: (§1) For this test, C. neoformans (H99), Candida albicans, Giardia lamblia, human lung line cell A549 (ATCC), Escherichia coli and Staphylococcus aureus. Cells were washed in PBS three times and suspended at 10^7 cell/ml density in poly-L-Lysine (5 μg/ml in PBS) for adherence at night at 4° C. The next day, plates were blocked with PBS/BSA 5% and incubated for 1 hour at 37° C., then they are incubated for 1 hour at 37° C. with anti-chitooligomer AcM at 50 μg/ml concentration and diluted at 5 μg/ml. Then, washing with PBS/Tween 0.05% was performed for 3 times and anti-IgM murine peroxidase was added diluted 1:5000 and incubated for 2 hours at 37° C. Plates were washed again and TMB was added and incubated for 30 minutes at 37° C.
(§2) Reaction was stopped with HCl 1 N and reading with spectrophotometer at 450 nm. After this trial, seriated dilutions were performed at density of cells 10^7 until 10 cells/ml to fungi and 10^7 until 10^4 cells/ml to other cellular types and tested of AcM anti-chitooligomer at 25 μg/ml concentration, followed by the same procedures abovementioned. […]
(§3) In this trial, 10^7 cell/ml of C. albicans were used to perform an absorbance curve, in which it was observed that there was a 25 μg/ml concentration reliable signal of both AcM, as above such value the curve starts to enter in plateau, as provided in FIG. 9. […]

C. albicans [1] = test: as above; type: binding, Candida albicans; conditions: 10^4 and 10^5 cells/ml
Procedure: as §1, §2, §3

C. albicans [2] = test: Biofilm development, XTT reduction trial; type: cell-based, Candida albicans; conditions: AcM 25 μg/ml, 48 hours at 37° C., vs fungus without treatment, p<0.05
Procedure: C. neoformans (H99 and Cap67) and Candida albicans were cultivated in Sabouraud media for 24 hours at 30° C. Cellular suspensions were centrifuged for 5 minutes at 3000 g, washed 3 times in PBC and suspended in minimum media (20 mg/ml thiamin, 30 mm glucose, 26 mM glycine, 20 mM MgSO4, and 58.8 mM KH2PO4). Then, they were added to 96-well plates (100 μl/well—1×10^6 células/ml) and cultivated for 48 hours at 37° C. at presence of AcM (HC6/DD11 and AF1/CC5) and AcM anti-GXM 18B7 (only to H99) at 25 μg/ml concentration, keeping under agitation for 30 minutes, for AcM total homogenization with fungi. As control, drug AmB was used at 1 μg/ml concentration.
Two analysis systems were performed: in the first, cells were washed, so that non-adhering cells were removed and only cells bonded to biofilm under development remained; in the second system, cells were not washed and all cells adhered or not to substrate were quantified.
Viable cell metabolic activity in both trials was assessed by the method based on decrease of XTT (2-methoxy-4-nitro-5-sulfophenyl)-5-[(phenylamino) carbonyl]-2H-tetrazolium hydroxide) in spectrophotometer at 492 nm of wavelength.
AcMs were tested (25 μg/ml) against three fungus species (C. albicans, C. neoformans—H99—and acapsular mutant of C. neoformans—Cap67), with control by AcM anti-GXM 18B7 (25 μg/ml) only to H99. In the first assay (FIGS. 14A and B), cellular suspensions were washed to remove non-adhering cells to substrate. […] In second assay (FIGS. 14C and D), cellular suspensions were not washed, and again AcM inhibited biofilm development (p<0.05) compared to cell not treated with antibodies. In both assays, cell growth was observed.

C. neoformans strain H99 = test: Survival trial, lethal i.p. challenge; type: in vivo, Balb/C line mice; conditions: synergic group: AcM 85 μg/animal with AmB 0.25 mg/kg
Procedure: Balb/C line mice (n=7) were lethally challenged via i.p. with 10^5 cells in PBS of C. neoformans (H99) and treated 2 hours later with 100 μl of AmB (2.5 mg/kg and 0.25 mg/kg), 100 μl of AcM (85 μg/ml) and 100 μl of AcM and AmB combined solution (0.25 mg/kg). Control animals were challenged only by C. neoformans (H99) or only with 100 μl of a solution of PBS, AmB (2.5 mg/kg) or AcM (85 μg/ml) without fungus (adapted from Liedke et al.). Survival rate was achieved and analysis was extended up to 90 days after infection, presenting statistical value with p<0.005.
Mice were lethally challenged with inoculant i.p. of 1×10^5 cells of yeast C. neoformans strain H99. After 2 hours, they were treated with PBS (negative control), 85 μg/animal of AcM (HC6/DD11) in isolate form, 0.25 or 2.5 mg/kg of AmB in isolate form, and in synergic form, AcM keeping test concentrations. Treatments were repeated for another two times, with 10-day interval.

B1: HC6/DD11: murine IgM monoclonal antibody against chitooligomers (chitotriose); VH SEQ ID NO: 15, VL SEQ ID NO: 16 (antibody, listed as Mus musculus, V domains shown)
VH: STGQVKLEESGGGLVQPGGSRKLSCAASGFTFSDYGMAWVRQAPGKGPEWVAFISNLAYSIYYADTVTGRFTISRENAKNTLYLEMSSLRSEDTAMYYCARDYYGSSYWYFDVWGAGTTVTAPC
VL: ATNSCISRGEVTITCSASSSVSYMHWFQQKPGTSPKLWIYSTSNLASGVPARFSGSGSGTSYSLTISRMEAEDAATYYCQQRSSYPLTFGAGTKLELKRADAAPTVSLET
fungal cellular wall labeling by immunofluorescence (Candida albicans): characteristic polar label
ELISA signal in cell saturation curve (C. neoformans (H99)): slightly more sensitive
ELISA signal in cell saturation curve (C. albicans [1]): slightly more sensitive
biofilm development (XTT reduction) (C. albicans [2]; non-washed cells): reduced biofilm development significantly
biofilm development (XTT reduction) (C. albicans [2]; washed cells): reduced biofilm development significantly
death of infected animals (C. neoformans strain H99; followed up to 90 days): did not die
survival (C. neoformans strain H99; up to 90 days, n=7): 100%

Reference: patent US12686712B2, “Antibody, related use, pharmaceutical composition including method for diagnosing fungal infections, fungal infection diagnosis kit and method for treating fungal infections” (priority 2020, dated 2026)
